Laboratory results from US20230065306A1 (INHIBRX, published 2023).
Positions count from the first letter of the chain named.

T1: CD123-his
T1 construct: also called histidine tagged human CD123; His-tagged CD123 ECD
T1 extracellular domain with C-terminal His tag: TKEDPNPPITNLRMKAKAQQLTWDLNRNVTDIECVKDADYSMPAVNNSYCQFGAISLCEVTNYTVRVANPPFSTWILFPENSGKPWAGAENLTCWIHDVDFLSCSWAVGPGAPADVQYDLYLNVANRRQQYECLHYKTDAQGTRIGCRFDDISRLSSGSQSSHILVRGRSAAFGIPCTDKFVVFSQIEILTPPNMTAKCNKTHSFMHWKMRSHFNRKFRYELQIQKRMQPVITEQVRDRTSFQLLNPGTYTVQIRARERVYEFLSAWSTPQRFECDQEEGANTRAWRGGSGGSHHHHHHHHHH

B1: hzA5v2-IgG1 (Fc fusion)
chain: EVQLVESGGGEVQPGGSLRLSCAASGGTFSSYGMAWFRQAPGKEREWVASNSWIAGSTYYAESVKGRFTISRDNAKNTVYLQMSSLRAEDTAVYYCAADLLATADDEYDYWGQGTLVTVDKTHTCPPCPAPGGPSVFLFPPKPKDTLMISRTPEVTCVVVDVSHEDPEVKFNWYVDGVEVHNAKTKPREEQYNSTYRVVSVLTVLHQDWLNGKEYKCKVSNKALPAPIEKTISKAKGQPREPQVYTLPPSRDELTKNQVSLTCLVKGFYPSDIAVEWESNGQPENNYKTTPPVLDSDGSFFLYSKLTVDKSRWQQGNVFSCSVMHEALHNHYTQKSLSLSPGK
notes: also called hzA5v2 sdAb
B2: hz1B11v28-IgG1 (Fc fusion)
chain: EVQLVESGGGEVQPGGSLRLSCAASGRTQSAVAMGWFRQAPGKDRDFVAAIRWSGGNTYYAESVEGRFTISRDNAKNTVYLQMSSLRAEDTAVYSCAISLNHFGLYDYWGQGTLVTVDKTHTCPPCPAPGGPSVFLFPPKPKDTLMISRTPEVTCVVVDVSHEDPEVKFNWYVDGVEVHNAKTKPREEQYNSTYRVVSVLTVLHQDWLNGKEYKCKVSNKALPAPIEKTISKAKGQPREPQVYTLPPSRDELTKNQVSLTCLVKGFYPSDIAVEWESNGQPENNYKTTPPVLDSDGSFFLYSKLTVDKSRWQQGNVFSCSVMHEALHNHYTQKSLSLSPGK
notes: also called hz1B11v28 sdAb
B3: hz1F5v1-IgG1 (Fc fusion)
chain: EVQLVESGGGEVQPGGSLRLSCAASGRAINMYAMGWFRQAPGKEREFVAAINWNGAYTQYAESVKGRFTISRDNAKNTLYLQMSSLRAEDTAVYYCSADADYNTYVSPNKRVSYWGQGTLVTVDKTHTCPPCPAPGGPSVFLFPPKPKDTLMISRTPEVTCVVVDVSHEDPEVKFNWYVDGVEVHNAKTKPREEQYNSTYRVVSVLTVLHQDWLNGKEYKCKVSNKALPAPIEKTISKAKGQPREPQVYTLPPSRDELTKNQVSLTCLVKGFYPSDIAVEWESNGQPENNYKTTPPVLDSDGSFFLYSKLTVDKSRWQQGNVFSCSVMHEALHNHYTQKSLSLSPGK
B4: hzF3v22-IgG1 (Fc fusion)
chain: EVQLVESGGGLVQPGGSLRLSCAASGRAINAYNMGWFRQAPGKGREFVSAINWNAARTYYAESVKGRFTISRDNAKNTLYLQMSSLRAEDTAVYYCAASGRWSAAVPSGEDQYNFWGQGTLVTVDKTHTCPPCPAPGGPSVFLFPPKPKDTLMISRTPEVTCVVVDVSHEDPEVKFNWYVDGVEVHNAKTKPREEQYNSTYRVVSVLTVLHQDWLNGKEYKCKVSNKALPAPIEKTISKAKGQPREPQVYTLPPSRDELTKNQVSLTCLVKGFYPSDIAVEWESNGQPENNYKTTPPVLDSDGSFFLYSKLTVDKSRWQQGNVFSCSVMHEALHNHYTQKSLSLSPGK
notes: also called hzF3v22 sdAb
B5: 1F5-IgG1 (Fc fusion)
chain: QVQLVQSGGGLVQAGGSLTVSCTASGRAINMYAMGWFRQAPGKEREFVAAINWNGAYTQYADSVKGRFTISRDNAKNTMYLQMNSLKPEDTAQYYCSADADYNTYVSPNKRVSYWGQGTQVTVDKTHTCPPCPAPGGPSVFLFPPKPKDTLMISRTPEVTCVVVDVSHEDPEVKFNWYVDGVEVHNAKTKPREEQYNSTYRVVSVLTVLHQDWLNGKEYKCKVSNKALPAPIEKTISKAKGQPREPQVYTLPPSRDELTKNQVSLTCLVKGFYPSDIAVEWESNGQPENNYKTTPPVLDSDGSFFLYSKLTVDKSRWQQGNVFSCSVMHEALHNHYTQKSLSLSPGK
B6: 4F2-IgG1 (Fc fusion)
chain: EVQLVQSGGGLVQAGGSLRLSCAASGRTVSNYPMAWFRQAPGKEREFVAHISWSGITSILNSVNDRFTISRDNAKNTIYLQMNSLKPEDTAVYYCAAAQRPTAGPKGPFGYWGQGTQVTVDKTHTCPPCPAPGGPSVFLFPPKPKDTLMISRTPEVTCVVVDVSHEDPEVKFNWYVDGVEVHNAKTKPREEQYNSTYRVVSVLTVLHQDWLNGKEYKCKVSNKALPAPIEKTISKAKGQPREPQVYTLPPSRDELTKNQVSLTCLVKGFYPSDIAVEWESNGQPENNYKTTPPVLDSDGSFFLYSKLTVDKSRWQQGNVFSCSVMHEALHNHYTQKSLSLSPGK
B7: hz1F5v2-IgG1 (Fc fusion)
chain: B3 chain with A23T
B8: F3-IgG1 (Fc fusion)
chain: EVQLVQSGGGLVQAGGSLRLSCRASGRAINSYNMGWFRQAPGKEREFVSAINWNGARTYYQDALKGRFAISRDNARNTMYLQMNNLKPEDTAVYYCAAAGRWSAAVPSGEDQYNFWGQGTQVTVDKTHTCPPCPAPGGPSVFLFPPKPKDTLMISRTPEVTCVVVDVSHEDPEVKFNWYVDGVEVHNAKTKPREEQYNSTYRVVSVLTVLHQDWLNGKEYKCKVSNKALPAPIEKTISKAKGQPREPQVYTLPPSRDELTKNQVSLTCLVKGFYPSDIAVEWESNGQPENNYKTTPPVLDSDGSFFLYSKLTVDKSRWQQGNVFSCSVMHEALHNHYTQKSLSLSPGK
notes: also called sdAb F3
B9: 1B11-IgG1 (Fc fusion)
chain: QVQLVQSGGGSVQAGGSLRLSCAAAGRTQSAVAMGWFRQDPGKDRDFVAAIRWSGGNTYYADSAEGRFTISRDNAKNTVYLQMDSLKPEDTAVYSCAISMNHFGMYDYWGQGTQVTVDKTHTCPPCPAPGGPSVFLFPPKPKDTLMISRTPEVTCVVVDVSHEDPEVKFNWYVDGVEVHNAKTKPREEQYNSTYRVVSVLTVLHQDWLNGKEYKCKVSNKALPAPIEKTISKAKGQPREPQVYTLPPSRDELTKNQVSLTCLVKGFYPSDIAVEWESNGQPENNYKTTPPVLDSDGSFFLYSKLTVDKSRWQQGNVFSCSVMHEALHNHYTQKSLSLSPGK
B10: hzF3v26-IgG1 (Fc fusion)
chain: B4 chain with A23R
B11: A5-IgG1 (Fc fusion)
chain: B1 chain with E6Q, E11L, P14A, A24V, A40P, E62G, S84N, R87K, A88P, L116Q
notes: No linker between VHH and Fc is stated; also called sdAb A5

Molecular target: T1, CD123-his
Experiment: BLI, CD123-his captured on Ni-NTA sensors, first sdAb 100 nM
Experimental: (§1) The epitopes of single domain antibodies (sdAbs) that comprise VHH domains that bind CD123 were compared using Bio-Layer Interferometry. 5 ug/mL of histidine tagged human CD123 was immobilized on Nickel-nitrilotriacetic acid (Ni-NTA) coated capture sensors. 100 nM of one sdAb was then loaded onto the CD123 antigen and allowed to come to equilibrium. The sensors were then transferred into 100 nM of a second sdAb.

binding result	Binder
binds	B1
binds	B2

Molecular target: T1, CD123-his
Experiment: BLI, CD123-his on Ni-NTA sensors preloaded with hzA5v2, second sdAb 100 nM
Experimental: as §1

binding result	Binder
binds	B3
binds	B4

molecular target: T2, human CD123 (full-length, on cells) (human, UniProt P26951 19-378); experiment: flow cytometry on HEK 293 cells transfected with full-length CD123; apparent Kd, one-site fit
T2 construct: also called CD123-FL; interleukin-3 receptor alpha chain
Experimental: (§2) Binding of sdAbs to human CD123 was assessed by flow cytometry. […] HEK 293 cells were transiently transfected with a plasmid encoding full-length CD123 (UniProt Accession No. P26951-1; mature form, SEQ ID NO: 1) and used as the positive cell line in FIGS. 2A to 2M, and untransfected HEK 293 cells were used as CD123-negative cells. In FIG. 2N, Molm-13 cells, which express CD123, were used as the positive cell line. Each cell type was plated at 30,000 cells/well in FACS buffer (PBS 1% BSA, 0.1% NaN₃ pH 7.4) on a 96-well round-bottom plate. The sdAbs were diluted in FACS buffer in a 3-fold, 11 point serial dilution. The sdAb dilutions were added to the plated cells, and assay plates were incubated for 30 minutes at 4° C. After washing twice in 150 μL of FACS buffer, cells in each well were resuspended in 100 μL of 1:2000 Alexa Fluor 647-conjugated Anti-Human IgG secondary diluted in FACS buffer and incubated at 4° C. for 30 minutes. The cells were washed twice more, then bound antibody was detected by flow cytometry.
(§3) Flow cytometric analysis was performed on an Intellicyte iQue Plus and fluorescence was plotted as median fluorescence intensity. The apparent affinity (Kd, nM) was determined using one site binding non-linear regression in PRISM graph software.

Kd	Binder
970 pM	B5
1370 pM	B6
580 pM	B3
920 pM	B7
530 pM	B8
520 pM	B9
590 pM	B4
930 pM	B10
120 pM	B11
110 pM	B1
960 pM	B2

molecular target: T2, human CD123 (full-length, on cells); experiment: flow cytometry, HEK 293 cells transfected with full-length CD123 (CD123-FL); Median RL-1H
Experimental: as §2, §3
Target sequence in this assay (P26951 19-378): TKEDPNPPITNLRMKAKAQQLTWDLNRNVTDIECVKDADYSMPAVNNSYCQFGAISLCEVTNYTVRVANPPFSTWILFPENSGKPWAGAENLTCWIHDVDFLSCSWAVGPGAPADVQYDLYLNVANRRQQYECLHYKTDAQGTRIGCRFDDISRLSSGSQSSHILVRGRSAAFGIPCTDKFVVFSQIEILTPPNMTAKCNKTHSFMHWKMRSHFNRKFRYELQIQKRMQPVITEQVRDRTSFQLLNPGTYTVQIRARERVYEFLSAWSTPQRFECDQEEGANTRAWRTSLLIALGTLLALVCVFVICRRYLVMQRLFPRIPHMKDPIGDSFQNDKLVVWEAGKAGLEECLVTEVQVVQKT

EC50 (read off the curve)	Binder
~900 pM	B5
1000 to 2000 pM	B6
~600 pM	B3
~1000 pM	B7
~600 pM	B8
~600 pM	B9
~700 pM	B4
~1000 pM	B10
~900 pM	B2

molecular target: T2, human CD123 (full-length, on cells); experiment: flow cytometry blocking assay, sdAb titrated on CD123-expressing HEK-293 cells with a fixed amount of IL-3-mFc
Experimental: (§4) Certain CD123-binding sdAbs were tested for the ability to block CD123 binding to IL-3 by titrating the sdAb onto CD123 expressing HEK-293 cells in the presence of a fixed amount of recombinant IL-3-mFc. Bound IL-3 was detected by flow cytometry using fluorophore conjugated anti-mouse IgG specific secondary antibody.

IC50 (read off the curve)	Binder
~1000 pM	B8
300 to 800 pM	B11

molecular target: T2, human CD123 (full-length, on cells); experiment: as above; remark: another data set of the same source
Experimental: as §4

IC50 (read off the curve)	Binder
~1000 pM	B3
